# Laboratory results: patent US20040171794A1 (DYAX, published 2004)
# T1: human neutrophil elastase (human, UniProt P08246 30-247, limits assumed)
# T1 construct: also called HNE; hNE
# T1 sequence (looked up): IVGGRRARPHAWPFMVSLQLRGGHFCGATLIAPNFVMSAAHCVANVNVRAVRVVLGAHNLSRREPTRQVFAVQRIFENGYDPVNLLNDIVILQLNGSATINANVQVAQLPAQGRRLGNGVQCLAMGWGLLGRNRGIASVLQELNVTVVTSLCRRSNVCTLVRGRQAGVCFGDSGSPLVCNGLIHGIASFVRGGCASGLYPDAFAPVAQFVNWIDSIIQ
# Molecular target: T1, human neutrophil elastase
# Assay: equilibrium inhibition of HNE activity on a fluorogenic peptide substrate, tight-binding model, 24 h incubation at 30 C
# Procedure: Inhibition of hNE was determined at 30° C. in 50 mM HEPES, pH 7.5, 150 mM NaCl, and 0.1% Triton X-100. […] Residual enzymatic activities were determined from the relative rates of substrate hydrolysis. The hydrolysis reaction was initiated by addition of N-methoxysuccinyl-Ala-Ala-Pro-Val-7-amino-methylcoumarin (SEQ ID No.: 41) as substrate. Enzymatic cleavage of this substrate releases the methylcoumarin moiety with concomitant increase the sample fluorescence. The rate of substrate hydrolysis was monitored at an excitation of 360 nm and an emission of 460 nm. Plots of the percent remaining activity versus inhibitor concentration were fit by nonlinear regression analysis to Equation 1 to determine equilibrium dissociation constants.
binder,measurement,value
DX-890 (also called native DX-890) EACNLPIVRGPCIAFFPRWAFDAVKGKCVLFPYGGCQGNGNKFYSEKECREYCGVP,binding result,binds
